{"source": "patent WO2021180110A1", "target": "CD147 (human) (UniProt P35613)", "test": "SPR, BIAcore 3000, CD147 amine-coupled on CM5 chip, Spike-RBD as analyte"}
{"substance": "new coronavirus S protein (COVID-19 Spike-RBD) (from UniProt P0DTC2 319-541) (ligand; other documents disagree on this pair)", "values": [{"measurement": "Kd", "value": 185, "unit": "nM"}, {"measurement": "koff", "value": 0.00206, "unit": "s⁻¹"}, {"measurement": "kon", "value": 11100, "unit": "M⁻¹ s⁻¹"}]}
